24 molecules from US20220133913A1 (KOREA BASIC SCIENCE INSTITUTE, published 2022) can be followed below.

Assay [1] concerns the target T1, human αvβ3 integrin ITGAVB3 (human, UniProt P06756 31-992; P05106 27-718, limits assumed).
T1 construct: Recombinant heterodimer used as immunogen, ELISA coating and SPR ligand; also called A5B3; A5b3
Kind of assay: phage ELISA, coated ITGAVB3, anti-M13-HRP, 490 nm. The protocol:
Further, in order to perform phage ELISA, 2.5 μg/mL to […] of a target protein and a control protein were coated at 4 degrees C. using a coating buffer, and the wells were washed 3 times with 200 μL washing buffer per well. The wells were blocked with 200 μL PBS-M for two hours at room temperature. The blocking buffer was removed and the plate was washed 6 times with the washing solution. Thereafter, 100 μL of phage solution was added to the washing buffer per well and incubation was executed at room temperature for 1 to 2 hours. Then, washing was performed 6 times with washing buffer. HRP-binding anti-M13 antibody (GE healthcare) was diluted with 1:5,000 blocking buffer. 100 μL of diluted conjugate was added onto each well, and incubation was performed at room temperature for 1 hour, and washing was carried out 6 times with washing buffer. The HRP substrate solution was prepared as follows: A stock solution of OPD was prepared by dissolving 22 mg OPD (Sigma) in 100 mL of […] sodium citrate (pH 4.0), and 36 μL 30% H₂O₂ was added to 21 mL of OPL stock solution immediately before the detection step. 100 μL of substrate solution was added to each well and incubation was performed for 30 minutes at room temperature. Plates were analyzed using a micro plate reader set at 490 nm.
A general note: An ELISA detects its analyte on a solid surface through an enzyme-linked reagent.

Assay [2] has as its target T1, human αvβ3 integrin ITGAVB3. Kind of assay: SPR, αvβ3 integrin immobilised on CMDH chip, nanobody as analyte. How it is done: Specifically, a CMDH chip (Carboxymethyl Dextran Hydrogel Surface Sensor Chip, Reichert Technologies) coated with Dextran was mounted on an SPR equipment (Reichert SR7500DC system) to perform immobilization of αᵥβ₃ integrin antigen. Then, an analysis of the affinity of the selected antibody based on the concentration was performed.
On the technique in general: Surface plasmon resonance follows binding to a sensor surface in real time, without labels.

T1 sequence (P06756 31-992 limits assumed, chain 1 of 2): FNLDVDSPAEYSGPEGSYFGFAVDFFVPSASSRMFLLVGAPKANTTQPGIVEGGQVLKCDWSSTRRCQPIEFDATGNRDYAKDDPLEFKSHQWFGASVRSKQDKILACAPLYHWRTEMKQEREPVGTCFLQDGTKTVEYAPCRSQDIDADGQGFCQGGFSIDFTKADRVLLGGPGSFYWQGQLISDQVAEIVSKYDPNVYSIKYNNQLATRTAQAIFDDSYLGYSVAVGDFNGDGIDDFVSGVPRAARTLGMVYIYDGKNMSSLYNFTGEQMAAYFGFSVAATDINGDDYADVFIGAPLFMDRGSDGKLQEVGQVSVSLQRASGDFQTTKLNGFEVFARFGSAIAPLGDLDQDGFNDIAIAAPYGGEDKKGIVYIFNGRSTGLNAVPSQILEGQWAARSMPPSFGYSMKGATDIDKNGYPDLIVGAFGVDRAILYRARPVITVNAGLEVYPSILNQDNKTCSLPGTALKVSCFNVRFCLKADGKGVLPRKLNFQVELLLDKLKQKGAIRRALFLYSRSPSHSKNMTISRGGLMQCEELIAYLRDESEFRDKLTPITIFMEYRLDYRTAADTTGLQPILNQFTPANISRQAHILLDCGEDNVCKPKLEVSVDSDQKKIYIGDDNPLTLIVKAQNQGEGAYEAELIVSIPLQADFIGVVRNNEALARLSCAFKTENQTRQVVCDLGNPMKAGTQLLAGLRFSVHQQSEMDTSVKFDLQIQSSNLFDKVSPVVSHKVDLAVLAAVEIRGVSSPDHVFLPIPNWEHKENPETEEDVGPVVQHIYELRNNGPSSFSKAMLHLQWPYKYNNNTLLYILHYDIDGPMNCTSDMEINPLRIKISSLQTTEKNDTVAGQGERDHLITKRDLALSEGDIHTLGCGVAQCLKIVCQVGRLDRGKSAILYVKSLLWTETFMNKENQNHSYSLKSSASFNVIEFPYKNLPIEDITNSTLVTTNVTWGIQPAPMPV
T1 sequence (P05106 27-718 limits assumed, chain 2 of 2): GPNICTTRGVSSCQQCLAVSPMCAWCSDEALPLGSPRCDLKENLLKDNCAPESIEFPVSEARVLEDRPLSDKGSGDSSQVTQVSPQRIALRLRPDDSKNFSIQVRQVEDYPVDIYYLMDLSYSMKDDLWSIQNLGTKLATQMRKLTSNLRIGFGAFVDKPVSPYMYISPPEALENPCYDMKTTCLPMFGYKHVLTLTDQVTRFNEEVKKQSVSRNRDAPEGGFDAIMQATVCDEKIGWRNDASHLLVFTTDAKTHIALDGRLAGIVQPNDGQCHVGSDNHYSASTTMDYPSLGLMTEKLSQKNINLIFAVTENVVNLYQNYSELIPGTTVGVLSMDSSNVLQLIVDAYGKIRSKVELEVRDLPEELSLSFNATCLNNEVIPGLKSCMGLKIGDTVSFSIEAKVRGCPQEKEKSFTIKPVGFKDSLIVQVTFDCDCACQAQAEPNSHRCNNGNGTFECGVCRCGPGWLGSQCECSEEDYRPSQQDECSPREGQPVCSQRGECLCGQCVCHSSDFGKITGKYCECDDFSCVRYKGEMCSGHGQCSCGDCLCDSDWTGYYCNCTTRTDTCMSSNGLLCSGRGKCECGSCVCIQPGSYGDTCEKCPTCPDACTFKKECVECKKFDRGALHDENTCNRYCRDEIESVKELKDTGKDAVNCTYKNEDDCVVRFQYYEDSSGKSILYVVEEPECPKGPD

B1: clone 2 (VHH)
VHH: EVQLVESGGGSVQPGESLRLSCVASGYTVSSSCMAWFRQAPGKEREVVATIVVTSDTTSTFYADSVKGRFTISPDNAKNTLNLQMNSLEPPDTAMYYCAADRKWNVCSRGYRYTPNWANQFTFWGQGTQVTVSS
In assay [1], B1 registered an OD490 of 2.02.

B2: clone 32 (VHH)
VHH: EVQLVESGGGSVQPGESLRLSCVASGYTVSSSCMAWFRQAPGKEREVVATIVVTSDTTSTFYADSVKGRFTISPDNAKNTLNLQMNSLEPSDTAMYYCAADRKWNVCSRGYRYTPNWANQFTFWGQGTQVTVSS
B2 came in with an OD490 in assay [1] of 1.88.

B3: single-domain antibody VHH-13 containing His6 tag (VHH)
VHH: HVQLVESGGGSVQPGESLRLSCVASGYTVSSSCMAWFRQAPGKEREVVATIVVTSDTTSTFYADSVKGRFTISPDNAKNTLNLQMNSLEPSDTAMYYCAADRKWNVCSRGYRYTPNWANQFTFWGQGTQVTVSS
notes: also called Nanobody #13
With B3, in assay [2], binding was put at a Kd of 9.38 nM, the koff is 0.00108 s⁻¹ and the on-rate constant (kon) was determined as 115000 M⁻¹ s⁻¹.

B4: clone 19 (VHH)
VHH: EVQLVESGGGSVQPGESLRLSCVASGYTVSSSCMAWFRQAPGKEREVVATIVVTSDTTSTFYADSVKGRFTISPDNAKNTLNLQMNSLEPSDTAMYYCAADRKWNVCSRGYRYTPNWANQFTFWGQGTQVTVSS
In assay [1], B4 returned an OD490 of 1.94.

B5: clone 28 (VHH)
VHH: EVQLVESGGGSVQPGESLRLSCVASGYTVSSSCMAWFRQAPGKEREVVATIVVTSDTTSTFYADSVKGRFTISPDNAKNTLNLQMNSLEPSDTAMYYCAADRKWNVCSRGYRYTPNWANQFTFWGQGTQVTVSS
The molecule B5 returned an OD490 in assay [1] of 1.94.

B6: clone 21 (VHH)
VHH: HVQLVESGGGSVQPGESLRLSCVASGYTVSSSCMAWFRQAPGKEREVVATIVVTSDTTSTFYADSVKGRFTISPDNAKNTLNLQMNSLEPSDTAMYYCAADRKWNVCSRGYRYTPNWANQFTFWGQGTQVTVSS
In turn, B6 returned an OD490 in assay [1] of 1.95.

B7: clone 3 (VHH)
VHH: EVQLVESGGGSVQPGESLRLSCVASGYTVSSSCMAWFRQAPGKEREVVATIVVTSDTTSTFYADSVKGRFTISPDNAKNTLNLQMNSLEPPDTAMYYCAADRKWNVCSRGYRYTPNWANQFTFWGQGTQVTVSS
Molecule B7 showed an OD490 in assay [1] of 1.88.

B8: clone 14 (VHH)
VHH: DVQLVESGGGSVQPGESLRLSCVASGYTVSSSCMAWFRQAPGKEREVVATIVVTSDTTSTFYADSVKGRFTISPDNAKNTLNLQMNSLEPSDTAMYYCAADRKWNVCSRGYRYTPNWANQFTFWGQGTLVTVSS
The molecule B8 displayed an OD490 in assay [1] of 1.93.

B9: clone 27 (VHH)
VHH: HVQLVESGGGSVQPGESLRLSCVASGYTVSSSCMAWFRQAPGKEREVVATIVVTSDTTSTFYADSVKGRFTISPDNAKNTLNLQMNSLEPSDTAMYYCAADRKWNVCSRGYRYTPNWANQFTFWGQGTQVTVSS
In turn, B9 registered an OD490 in assay [1] of 1.97.

B10: clone 29 (VHH)
VHH: DVQLVESGGGSVQPGESLRLSCVASGYTVSSSCMAWFRQAPGKEREVVATIVVTSDTTSTFYADSVKGRFTISPDNAKNTLNLQMNSLEPSDTAMYYCAADRKWNVCSRGYRYTPNWANQFTFWGQGTLVTVSS
The molecule B10 gave an OD490 in assay [1] of 2.04.

B11: clone 4 (VHH)
VHH: EVQLVESGGGSVQPGESLRLSCVASGYTVSSSCMAWFRQAPGKEREVVATIVVTSDTTSTFYADSVKGRFTISPDNAKNTLNLQMNSLEPPDTAMYYCAADRKWNVCSRGYRYTPNWANQFTFWGQGTQVTVSS
The molecule B11 registered an OD490 in assay [1] of 2.16.

B12: clone 39 (VHH)
VHH: EVQLVESGGGSVQPGESLRLSCVASGYTVSSSCMAWFRQAPGKEREVVATIVVTSDTTSTFYADSVKGRFTISPDNAKNTLNLQMNSLEPPDTAMYYCAADRKWNVCSRGYRYTPNWANQFTFWGQGTQVTVSS
The molecule B12 displayed an OD490 in assay [1] of 1.8.

B13: clone 8 (VHH)
VHH: DVQLVESGGGSVQPGGSLRLSCAASGYTVENSCMAWFRQAPGKEREVVATIVTNNATGTFYADSVKGRFTVSQDNAKNTLNLQMNSLEPEDTAMYYCAADTKWIVCSRGYRYTPNWANQFKYWGQGTQVTVSS
The molecule B13 registered an OD490 in assay [1] of 1.95.

B14: clone 34 (VHH)
VHH: DVQLVESGGGSVQPGGSLRLSCAASGYTVENSCMAWFRQAPGKEREVVATIVTNNATGTFYADSVKGRFTVSQDNAKNTLNLQMNSLEPEDTAMYYCAADTKWIVCSRGYRYTPNWANQFKYWGQGTQVTVSS
Regarding B14, the OD490 in assay [1] was determined as 2.01.

B15: clone 36 (VHH)
VHH: DVQLVESGGGSVQPGGSLRLSCAASGYTVENSCMAWFRQAPGKEREVVATIVTNNATGTFYADSVKGRFTVSQDNAKNTLNLQMNSLEPEDTAMYYCAADTKWIVCSRGYRYTPNWANQFKYWGQGTQVTVSS
In the case of B15, the OD490 in assay [1] worked out at 1.98.

B16: clone 30 (VHH)
VHH: DVQLVESGGGSVQPGGSLRLSCAASGYTVDNSCMAWFRQAPGKEREVVATIVTNNATSTFYADSVKGRFTVSHDNAKNTLNLQMNTLEPEDTAMYYCAADTKWIVCSRGYRYTPNWANHFNYWGQGTLVTVSS
On to B16, for which, in assay [1], the OD490 amounted to 1.97.

B17: clone 38 (VHH)
VHH: DVQLVESGGGSVQPGGSLRLSCAASGYTVDNSCMAWFRQAPGKEREVVATIVTNNATSTFYADSVKGRFTVSHDNAKNTLNLQMNTLEPEDTAMYYCAADTKWIVCSRGYRYTPNWANHFNYWGQGTLVTVSS
Turning to B17, the OD490 in assay [1] was found to be 2.12.

B18: clone 40 (VHH)
VHH: DVQLVESGGGSVQPGGSLRLSCAASGYTVDNSCMAWFRQAPGKEREVVATIVTNNATSTFYADSVKGRFTVSHDNAKNTLNLQMNTLEPEDTAMYYCAADTKWIVCSRGYRYTPNWANHFNYWGQGTLVTVSS
For the molecule B18, the OD490 in assay [1] was 2.04.

B19: clone 37 (VHH)
VHH: HVQLVESGGGSVQTGGSLRLSCAASGYTSSTVYMAWFRQTPGKQREGVAAIYTGGGPTYYADSVKGRFTISQDNAKNTVYLQMNTLKPEDTAMYYCAADRYVYRLVTNWYRPSFYTYWGQGTQVTVSS
Take B19: the OD490 in assay [1] stood at 2.09.

B20: clone 10 (VHH)
VHH: EVQLVESGGGSVQAGGSLRLSCVVSGYTCSVYDMIWYRQPPGKEREFVSLINSNGRTTYADSVKGRFTISQNNAKNTVYLQMNSLKPEDTAMYYCHAACYSPSRLNYWGQGTQVTVSS
In assay [1], B20 registered an OD490 of 2.14.

B21: single-domain antibody VHH-22 containing His6 tag (VHH)
VHH: QVQLVESGGGSVQAGGSLRLSCVVSGYTCSVYDMIWYRQPPGKEREFVSLINSNGRTTYADSVKGRFTISQNNAKNTVYLQMNSLKPEDTAMYYCHAACYSPSRLNYWGQGTLVTVSS
notes: also called Nanobody #22
In assay [2], B21 came in with an equilibrium dissociation constant (Kd) of 15.5 nM, a koff of 0.000974 s⁻¹ and an on-rate constant (kon) of 62700 M⁻¹ s⁻¹.

B22: clone 33 (VHH)
VHH: EVQLVESGGGSVQAGGSLRLSCVVSGYTCSVYDMIWYRQPPGKEREFVSLINSNGRTTYADSVKGRFTISQNNAKNTVYLQMNSLKPEDTAMYYCHAACYSPSRLNYWGQGTQVTVSS
B22 gave an OD490 in assay [1] of 1.86.

B23: single-domain antibody VHH-25 containing His6 tag (VHH)
VHH: EVQLVESGGGSVQAGGSLRLSCVVSGYTCSVYDMIWYRQPPGKEREFVSLINSNGRTTYADSVKGRFTISQNNAKNTVYLQMNSLKPEDTAMYYCHAACYSPSRLNYWGQGTQVTVSS
notes: also called Nanobody #25; pALT-Avb3 VHH25 product
With B23, in assay [2], binding was characterised by a dissociation constant (Kd) of 8.83 nM, the koff amounted to 0.000871 s⁻¹ and the kon is 98600 M⁻¹ s⁻¹.

B24: clone 26 (VHH)
VHH: QVQLVESGGGSVQAGGSLRLSCVVSGYTCSVYDMIWYRQPPGKEREFVSLINSNGRTTYADSVKGRFTISQNNAKNTVYLQMNSLKPEDTAMYYCHAACYSPSRLNYWGQGTLVTVSS
B24 displayed an OD490 in assay [1] of 2.01.

What is called Kd is the constant that tells how readily two partners part at equilibrium. Usually koff stands for the rate constant with which the complex falls apart. Lower therefore signals slow dissociation. The term kon denotes the second-order rate constant of association. Higher therefore signals fast association.
